From publication PMC6722932 (Toxins, 2019) come the findings set out here.

This series concerns the molecule itself. In words: negative-stain electron microscopy; 7 uM lysenin incubated with MLVs of SM/DOPC/cholesterol (1:2:1) for 30 min at 20 °C, with or without 10 mM DTT; fixed with 1% glutaraldehyde, stained with 2% uranyl acetate.

B1: lysenin^WT (natural protein)
chain: MSAKAAEGYEQIEVDVVAVWKEGYVYENRGSTSVDQKITITKGMKNVNSETRTVTATHSIGSTISTGDAFEIGSVEVSYSHSHEESQVSMTETEVYESKVIEHTITIPPTSKFTRWQLNADVGGADIEYMYLIDEVTPIGGTQSIPQVITSRAKIIVGRQIILGKTEIRIKHAERKEYMTVVSRKSWPAATLGHSKLFKFVLYEDWGGFRIKTLNTMYSGYEYAYSSDQGGIYFDQGTDNPKQRWAINKSLPLRHGDVVTFMNKYFTRSGLCYDDGPATNVYCLDKREDKWILEVVG
notes: also called recombinant lysenin; wild-type lysenin; source: E. coli BL21(DE3), purified (Ni Sepharose 6 Fast Flow)
Take B1: the binding result was “binds”.
